US12269859B2, “Synthetic immune receptors and methods of use thereof” (Angeles Therapeutics, Inc., priority 2016, dated 2025)

B1: 091316-A01 (protein)
chain: MALPVTALLLPLALLLHAARPLEGKPIPNPLLGLDSTGSGEDLKNVFPPEVAVFEPSKAEIAHTQKATLVCLATGFYPDHVELSWWVNGKEVHSGVCTDPQPLKEQPALNDSRYCLSSRLRVSATFWQNPRNHFRCQVQFYGLSENDEWTQDRAKPVTQIVSAEAWGRADCGITSASYHQGVLSATILYEILLGKATLYAVLVSALVLMAMVKRKDSRGRAKRSGSGATNFSLLKQAGDVEENPGPTSMALPVTALLLPLALLLHAARPDIVMTQAAPSIPVTPGESVSISCRSDKSLLHSNGNTYLFWFLQRPGQSPQLLIYRMSNLASGVPDRFSGSGSGTAFTLRISGVEAEDVGVYYCMQHLEYPYTFGGGTKLEIKGGGGSGGGGSGGGGSQVQLQQSGPELVKPGASVKMSCKASGYAFSSSWLNWVRQRPGKGLEWIGRIYPGDGENHYNGKFKGKATLTADKSSSTGYMQLSSLTSEDSAVYFCASYYEGGYWGQGTLITVSATREQKLISEEDGSGIQNPDPAVYQLRDSKSSDKSVCLFTDFDSQTNVSQSKDSDVYITDKCVLDMRSMDFKSNSAVAWSNKSDFACANAFNNSIIPEDTFFPSSDVPCDVKLVEKSFETDTNLNFQNLSVIGFRILLLKVAGFNLLMTLRLWSSRAKRSGSGVKQTLNFDLLKLAGDVESNPGPSRGHMTEYKPTVRLATRDDVPRAVRTLAAAFADYPATRHTVDPDRHIERVTELQELFLTRVGLDIGKVWVADDGAAVAVWTTPESVEAGAVFAEIGPRMAELSGSRLAAQQQMEGLLAPHRPKEPAWFLATVGVSPDHQGKGLGSAVVLPGVEAAERAGVPAFLETSAPRNLPFYERLGFTVTADVEVPEGPRTWCMTRKPGA
modifications: Synthetic Immune Receptor (SIR)
B2: 092216-B03 (protein)
chain: MALPVTALLLPLALLLHAARPLEGKPIPNPLLGLDSTGSGEDLKNVFPPEVAVFEPSKAEIAHTQKATLVCLATGFYPDHVELSWWVNGKEVHSGVCTDPQPLKEQPALNDSRYCLSSRLRVSATFWQNPRNHFRCQVQFYGLSENDEWTQDRAKPVTQIVSAEAWGRADCGITSASYHQGVLSATILYEILLGKATLYAVLVSALVLMAMVKRKDSRGRAKRSGSGATNFSLLKQAGDVEENPGPTSMALPVTALLLPLALLLHAARPDQIVLTQSPAIMSASPGEKVTISCSASSSVSYMYWYQQKPGSSPKPWIYRTSNLASGVPARFSGSGSGTSYSLTISNMEAEDAAAYYCQQYHSYPTTFGGGTKLEVKGGGGSGGGGSGGGGSEVQLVESGGGLVQPKGSLKLSCAASGFSFNTYAMNWVRQAPGKGLEWIAHIRSKSNNFATYYADSVKDRFSISRDASENILFLQMNNLKTEDTAMYYCVRQGGDFPMDYWGQGTSVTVSSTREQKLISEEDGSGIQNPDPAVYQLRDSKSSDKSVCLFTDFDSQTNVSQSKDSDVYITDKCVLDMRSMDFKSNSAVAWSNKSDFACANAFNNSIIPEDTFFPSSDVPCDVKLVEKSFETDTNLNFQNLSVIGFRILLLKVAGFNLLMTLRLWSSRAKRSGSGVKQTLNFDLLKLAGDVESNPGPSRGHMTEYKPTVRLATRDDVPRAVRTLAAAFADYPATRHTVDPDRHIERVTELQELFLTRVGLDIGKVWVADDGAAVAVWTTPESVEAGAVFAEIGPRMAELSGSRLAAQQQMEGLLAPHRPKEPAWFLATVGVSPDHQGKGLGSAVVLPGVEAAERAGVPAFLETSAPRNLPFYERLGFTVTADVEVPEGPRTWCMTRKPGA
modifications: Synthetic Immune Receptor (SIR)
B3: 101817-B02 (protein)
chain: MALPVTALLLPLALLLHAARPEIVLTQSPATLSLSPGERATLSCSASSSVSYMYWYQQKPGQAPRLLIYRTSNLASGIPARFSGSGSGTDFTLTISSLEPEDFAVYYCQQYHSYPTTFGQGTKVEIKRTVLEIQNPDPAVYQLRDSKSSDKSVCLFTDFDSQTNVSQSKDSDVYITDKCVLDMRSMDFKSNSAVAWSNKSDFACANAFNNSIIPEDTFFPSSDVPCDVKLVEKSFETDTNLNFQNLSVIGFRILLLKVAGFNLLMTLRLWSSRAKRSGSGVKQTLNFDLLKLAGDVESNPGPTSMDWIWRILFLVGAATGAHSFEEVQLVESGGGLVQPGGSLRLSCAASGFSFNTYAMNWVRQAPGKGLEWVSHIRSKSNNFATYYADSVKDRFTISRDNAKNSLYLQMNSLRAEDTAVYYCARQGGDFPMDYWGQGTLVTVSSTREDLKNVFPPEVAVFEPSKAEIAHTQKATLVCLATGFYPDHVELSWWVNGKEVHSGVCTDPQPLKEQPALNDSRYCLSSRLRVSATFWQNPRNHFRCQVQFYGLSENDEWTQDRAKPVTQIVSAEAWGRADCGITSASYHQGVLSATILYEILLGKATLYAVLVSALVLMAMVKRKDSRGRAKRSGSGATNFSLLKQAGDVEENPGPSRGHMTEYKPTVRLATRDDVPRAVRTLAAAFADYPATRHTVDPDRHIERVTELQELFLTRVGLDIGKVWVADDGAAVAVWTTPESVEAGAVFAEIGPRMAELSGSRLAAQQQMEGLLAPHRPKEPAWFLATVGVSPDHQGKGLGSAVVLPGVEAAERAGVPAFLETSAPRNLPFYERLGFTVTADVEVPEGPRTWCMTRKPGA
B4: 092517-H02 (protein)
chain: MALPVTALLLPLALLLHAARPLEGKPIPNPLLGLDSTGSGEDLKNVFPPEVAVFEPSKAEIAHTQKATLVCLATGFYPDHVELSWWVNGKEVHSGVCTDPQPLKEQPALNDSRYCLSSRLRVSATFWQNPRNHFRCQVQFYGLSENDEWTQDRAKPVTQIVSAEAWGRADCGITSASYHQGVLSATILYEILLGKATLYAVLVSALVLMAMVKRKDSRGRAKRSGSGATNFSLLKQAGDVEENPGPTSMALPVTALLLPLALLLHAARPDVVMTQSPSSLSASVGDRVTITCKASEDIYIRLAWYQQKPGKAPKLLIYAATSLETGVPSRFSGSGSGTDFTLTISSLQPEDFATYYCQQYWTTPWTFGGGTKVEIKGGGGSGGGGSGGGGSQVQLQESGPGLVKPSQTLSLTCTVSGYSITIDYTWNWIRQPPGKGLEWIGYITYSGSTDYNPSLKSRVLISVDTSKNQVSLKLSSVTAADTAVYYCARLGRRYALDYWGQGTTVTVSSTREQKLISEEDGSGIQNPDPAVYQLRDSKSSDKSVCLFTDFDSQTNVSQSKDSDVYITDKCVLDMRSMDFKSNSAVAWSNKSDFACANAFNNSIIPEDTFFPSSDVPCDVKLVEKSFETDTNLNFQNLSVIGFRILLLKVAGFNLLMTLRLWSSRAKRSGSGVKQTLNFDLLKLAGDVESNPGPSRGHMTEYKPTVRLATRDDVPRAVRTLAAAFADYPATRHTVDPDRHIERVTELQELFLTRVGLDIGKVWVADDGAAVAVWTTPESVEAGAVFAEIGPRMAELSGSRLAAQQQMEGLLAPHRPKEPAWFLATVGVSPDHQGKGLGSAVVLPGVEAAERAGVPAFLETSAPRNLPFYERLGFTVTADVEVPEGPRTWCMTRKPGA

test system: target antigen-expressing cell line; test: Jurkat NFAT-GFP assay, coculture with target cell lines expressing the respective target antigen (summary Table 10A); type: cell-based, human; design: key: The signs +/−, +, 2+ etc. after the name of the cell lines indicate the relative degree of positivity on the Jurkat-NFAT-GFP assay as measured by the % GFP positive cells; +: relative degree of positivity on the Jurkat-NFAT-GFP assay as measured by the % GFP positive cells; 2+: relative degree of positivity on the Jurkat-NFAT-GFP assay as measured by the % GFP positive cells; settings: coculture with HEL cells
In short: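 Jurkat cells carrying an NFAT-site IL-2 promoter driving GFP were lentivirally transduced with SIRs, puromycin-selected, then cocultured with antigen-expressing target cells at E:T about 1:2 for about 4–18 hours. GFP induction was read by flow cytometry as % GFP-positive cells versus parental Jurkat-NFAT-GFP.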

Molecule | NFAT-GFP ASSAY Positive Cell lines
B1 | HEL (+/−)
B2 | HEL (+)
B3 | HEL (+)
B4 | HEL(+)
